Data: patent EP1086224B1

Key:
[1] = biological target: cell-surface HLA-A1 on Hmy2.C1R-A1 transfectants with ornithine decarboxylase 309-317 (OD 309) peptide (human); assay: competition with 2.5 µM myc-hβ2m on Hmy2.C1R-A1 cells with OD 309 peptide, 9E10 anti-myc, flow cytometry
[2] = biological target: cell-surface HLA-A2 on Hmy2.C1R-A2 transfectants with HIV gag 77-85 peptide (human; HIV), A*02:0
[3] = biological target: cell-surface HLA-A3 on Hmy2.C1R-A3 transfectants with pn2a.A3 peptide (human)
[4] = biological target: cell-surface HLA-A2 on Hmy2.C1R-A2 target cells with HTLV-1 TAX 11-19 peptide (human; HTLV-1), A*02:0; assay: cell-based or functional assay
[5] = biological target: cell-surface HLA-A3 on Hmy2.C1R-A3 transfectants with pn2a.A3 peptide (human); remark: listed apart in the source
[6] = biological target: cell-surface HLA-A1 on Hmy2.C1R-A1 transfectants with ornithine decarboxylase 309-317 (OD 309) peptide (human); assay: HLA stabilization assay, acid-stripped Hmy2.C1R-A1 cells with OD 309 peptide and BB7.5 mAb, flow cytometry

Substance	fold better inhibition of myc-hβ2m binding than wild-type hβ2m at a molar level [1] [fold]	fold better inhibition of myc-hβ2m binding than wild-type hβ2m at a molar level [2] [fold]	fold better inhibition of myc-hβ2m binding than wild-type hβ2m at a molar level [3] [fold]	enhancement of target cell lysis, fold more effective at a molar level than wild-type hβ2m [4] [fold]	fold better stabilization than wild-type hβ2m at a molar level [5] [fold]	fold better stabilization than wild-type hβ2m at a molar level [6] [fold]	hβ2m concentration giving maximal lysis by the TAX-specific CTL clone [4] [µM]
hβ2m S55V (human β2-microglobulin with valine at position 55) (from UniProt P61769 21-119)	2.5	2.5	2.5	4	3	2	–
wild-type human β2-microglobulin (hβ2m), recombinant (from UniProt P61769 21-119)	–	–	–	–	–	–	8
